From publication PMC12509757 (2025)

Target: BSA (Bos taurus (Bovine), UniProt P02769)
Test: co-sedimentation (ultracentrifugation pelleting, immunoblot), BSA in place of microtubules as negative control

Sequence of BSA (P02769 25-607): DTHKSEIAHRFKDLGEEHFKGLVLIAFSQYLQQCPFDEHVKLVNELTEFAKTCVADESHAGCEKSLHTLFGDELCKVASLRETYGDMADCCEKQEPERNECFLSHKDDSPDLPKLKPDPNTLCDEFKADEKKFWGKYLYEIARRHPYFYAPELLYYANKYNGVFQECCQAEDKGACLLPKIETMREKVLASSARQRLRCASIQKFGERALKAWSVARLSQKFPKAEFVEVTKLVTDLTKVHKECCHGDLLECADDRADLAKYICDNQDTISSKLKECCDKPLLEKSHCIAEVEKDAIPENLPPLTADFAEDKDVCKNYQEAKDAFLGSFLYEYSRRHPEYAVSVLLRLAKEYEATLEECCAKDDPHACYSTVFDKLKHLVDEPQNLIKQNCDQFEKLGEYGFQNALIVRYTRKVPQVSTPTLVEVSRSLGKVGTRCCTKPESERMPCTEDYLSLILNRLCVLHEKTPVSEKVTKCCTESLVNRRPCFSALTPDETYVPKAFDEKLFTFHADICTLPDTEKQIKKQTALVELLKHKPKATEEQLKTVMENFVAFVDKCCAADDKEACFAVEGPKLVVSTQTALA

- binding result: no binding
B1: His GST BAR-PH (aa 1-388) of ARHGAP10, WT (protein)
chain: MGLQPLEFSDCYLDSPWFRERIRAHEAELERTNKFIKELIKDGKNLIAATKSLSVAQRKFAHSLRDFKFEFIGDAVTDDERCIDASLREFSNFLKNLEEQREIMALSVTETLIKPLEKFRKEQLGAVKEEKKKFDKETEKNYSLIDKHLNLSAKKKDSHLQEADIQVEQNRQHFYELSLEYVCKLQEIQERKKFEFVEPMLSFFQGMFTFYHQGHELAKDFNHYKMELQINIQNTRNRFEGTRSEVEELMNKIRQNPKDHKRASQFTAEGYLYVQEKRPAPFGSSWVKHYCMYRKAAKKFNMIPFEHRSGGKLGDGEVFFLKECTKRHTDSIDRRFCFDIEAADRPGVSLTMQAFSEEERKQWLEALGGKEALSHSFNTAIIPRPEGN
